Assay results: article PMC6529005, “FMRP - G-quadruplex mRNA - miR-125a interactions: Implications for miR-125a mediated translation regulation of PSD-95 mRNA”

What was measured:
FMRP S500D [1] = biological target: T1, FMRP S500D (UniProt Q06787 1-632, S500D); experiment: fluorescence titration (2AP); 150 mM KCl, 1 uM BSA; Fluorescence: 10 mM cacodylic acid pH 6.5, 150 mM KCl, 1 uM BSA, 200 nM RNA; EMSA: 0.5x TBE native gels at 4 C (5 mM KCl for PSD-95 RNAs), incubation at room te
FMRP S500D [2] = biological target: T1, FMRP S500D; experiment: EMSA; 200 nM RNA, up to 1:2; Fluorescence: 10 mM cacodylic acid pH 6.5, 150 mM KCl, 1 uM BSA, 200 nM RNA; EMSA: 0.5x TBE native gels at 4 C (5 mM KCl for PSD-95 RNAs), incubation at room te
FMRP RGG peptide [3] = biological target: FMRP RGG peptide (UniProt Q06787); experiment: EMSA; 5 mM KCl; Fluorescence: 10 mM cacodylic acid pH 6.5, 150 mM KCl, 1 uM BSA, 200 nM RNA; EMSA: 0.5x TBE native gels at 4 C (5 mM KCl for PSD-95 RNAs), incubation at room temperature 15-20 min; pull-down: RIPA (150 mM NaCl, 50 mM Tris pH 8.0), room temperature
FMRP S500D [4] = biological target: T1, FMRP S500D; experiment: EMSA; 200 nM RNA, similar to miR-125a; Fluorescence: 10 mM cacodylic acid pH 6.5, 150 mM KCl, 1 uM BSA, 200 nM RNA; EMSA: 0.5x TBE native gels at 4 C (5 mM KCl for PSD-95 RNAs), incubation at room te
FMRP S500D [5] = biological target: T1, FMRP S500D; experiment: EMSA; 200 nM RNA, complete at 1:2; Kd estimated low nM; Fluorescence: 10 mM cacodylic acid pH 6.5, 150 mM KCl, 1 uM BSA, 200 nM RNA; EMSA: 0.5x TBE native gels at 4 C (5 mM KCl for PSD-95 RNAs), incubation at room te
FMRP RGG peptide [6] = biological target: FMRP RGG peptide (UniProt Q06787); experiment: EMSA; 200 nM RNA, up to 1:2; Fluorescence: 10 mM cacodylic acid pH 6.5, 150 mM KCl, 1 uM BSA, 200 nM RNA; EMSA: 0.5x TBE native gels at 4 C (5 mM KCl for PSD-95 RNAs), incubation at room temperature 15-20 min; pull-down: RIPA (150 mM NaCl, 50 mM Tris pH 8.0), room temperature

GGGAAAAGGGAGGGAUGGG (structured_RNA, A11 replaced by 2-aminopurine) [PSD-95 Q11234 11-2AP]
Kd (FMRP S500D [1]): 66 nM

UAGGUAGUUUCAUGUUGUUGGG (ssRNA) [miR-196a-1]
binding result (FMRP S500D [2]): binds

GGGAGGGAGGGUGGG (structured_RNA) [PSD-95 Q2]
binding result (FMRP RGG peptide [3]; G-quadruplex): binds

UCCCUGAGACCCUAACUUGUGA (ssRNA) [miR-125b]
binding result (FMRP S500D [4]): binds

UGGAGUGUGACAAUGGUGUUUG (ssRNA) [miR-122]
binding result (FMRP S500D [2]): no binding

GGGAGGGAGGGUGGG (structured_RNA, A4 replaced by 2-aminopurine) [PSD-95 Q2 4-2AP]
Kd (FMRP S500D [1]): 100 nM

B1: PSD-95 Q1-Q2 (structured_RNA)
RNA: GGGAAAAGGGAGGGAUGGGUCUAGGGAGUGGGAAAUGCGGGAGGGAGGGUGGG
binding result (FMRP RGG peptide [3]; two G-quadruplexes): binds

UCCCUGAGACCCUUUAACCUGUGA (ssRNA) [miR-125a]
binding result (FMRP S500D [5]): binds
binding result (FMRP RGG peptide [6]): no binding

GGGAAAAGGGAGGGAUGGGUCUAGGG (structured_RNA) [PSD-95 Q1]
binding result (FMRP RGG peptide [3]; G-quadruplex, multiple conformations): binds

UCCCUGAGACCGUUUAACCUGUGA (ssRNA) [miR-125a-Mut2]
binding result (FMRP S500D [4]): binds
